Experimental data: PMC6146036 (Frontiers in Molecular Neuroscience, 2018)
“Also recorded” adds a separate entry of the source.

What was measured:
[1] = target: T1, human recombinant choline acetyltransferase (rChAT) (Homo sapiens, UniProt P28329); assay: Fluorometric in vitro ChAT activity assay (human rChAT, CPM read-out); assay type: biochemical; conditions: for direction of effect on ChAT activity at high concentrations: 0 to 3,800 ng/mL (0–833.3 nM), 1:2 dilutions, two independent experiments, Figure 2C; for difference in slopes of ChAT rate vs gelatin control: 6.4 ng/mL Aβ40 or 0.16 ng/mL Aβ42 (F = 21, p < 0.0001), linear regression; for effect on increases in ChAT activity at the higher Aβ concentration points: 160 and 800 ng/mL Aβ40, 100 ng/mL Aβ42, activity still higher than baseline; for concentration range giving the highest level of ChAT activation in the mixture: Aβ40:Aβ42 10:1 mixture, Figure 5C, with or without gelatin; for effect on ChAT activity at physiological concentrations: CSF concentrations ∼4–6.4 ng/mL Aβ40, ∼0.4–0.8 ng/mL Aβ42, Figures 2A,B
T1 construct: made in house; host or cells: E. coli BL21 Rosetta2
T1 sequence (P28329 1-630 isoform P28329-3): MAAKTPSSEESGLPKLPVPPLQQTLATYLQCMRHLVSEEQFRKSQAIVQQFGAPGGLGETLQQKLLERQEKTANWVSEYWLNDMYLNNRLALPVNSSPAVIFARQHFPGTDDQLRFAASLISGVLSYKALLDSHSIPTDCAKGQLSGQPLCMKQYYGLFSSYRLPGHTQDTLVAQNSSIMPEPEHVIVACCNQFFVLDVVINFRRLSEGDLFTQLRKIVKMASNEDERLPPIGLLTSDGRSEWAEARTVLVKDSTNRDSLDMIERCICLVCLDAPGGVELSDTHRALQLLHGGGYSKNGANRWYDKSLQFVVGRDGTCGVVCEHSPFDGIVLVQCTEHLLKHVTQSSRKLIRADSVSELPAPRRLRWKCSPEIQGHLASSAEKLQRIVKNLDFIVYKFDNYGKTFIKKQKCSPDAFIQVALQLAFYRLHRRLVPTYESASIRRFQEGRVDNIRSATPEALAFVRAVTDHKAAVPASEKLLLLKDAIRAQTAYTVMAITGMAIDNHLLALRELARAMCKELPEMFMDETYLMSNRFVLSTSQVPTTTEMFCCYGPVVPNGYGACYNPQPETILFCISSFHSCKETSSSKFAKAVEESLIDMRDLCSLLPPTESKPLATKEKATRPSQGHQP
Procedure: Recombinant ChAT was purified as described previously ([Kumar et al., 2016a], [2017]). Briefly, DYT media was inoculated with an O/N culture of E. coli BL21 Rosetta2 transformed with pProExHTa-ChAT (a gift from Dr. Brian Shilton, Department of Biochemistry, University of Western Ontario, London, ON, Canada). The bacteria were grown in shaking incubator at 37°C with 200 rpm until the optical density at 600 nm reached 0.5. After which, 0.5 mM IPTG was added and His6-ChAT was expressed for approximately 16 h at 18°C. Next, the cells were harvested and His6-ChAT was purified with “Ni-NTA fast start Kit” (Qiagen) following the manufacturer’s instructions. The elution buffer was exchanged to storage buffer [10 mM Tris pH 7.4, 500 mM NaCl, 10% (v/v) glycerol] using 30 kDa molecular weight cutoff Amicon Ultra concentrators (Merck Millipore). The purity and molecular weight of the protein were determined using SDS-PAGE electrophoresis. The total protein concentration was determined using DC Protein Assay (Bio-Rad). The purified protein was aliquoted and stored at −80°C.
ChAT activity was measured with our newly developed robust in-house fluorometric assay, using human rChAT protein. […] The reagents, choline chloride (C7017), acetyl coenzyme-A (ACoA, A2181), 7-diethylamino-3-(4-maleimidophenyl)-4-methylcoumarin (CPM) (C1484), thioflavin-T (ThT; T3516), and gelatin (G7041) were purchased from Sigma-Aldrich (St. Louis, MO, United States).
Then, 50 μL of a cocktail-A [dilution buffer containing 10 μM ACoA (final concentration) and 15 μM CPM (final concentration)] was added to each well. Immediately after adding the cocktail-A, the changes in fluorescence were monitored kinetically at 479 nm emission wavelength after exciting at 390 nm wavelength, at 1- to 2-min intervals for 15–20 min using a microplate spectrophotometer reader (Infinite M1000, Tecan).
Each Aβ peptide dilution was run in triplicates. On each 96-wells plate, several enzyme wells without Aβ were also included as positive controls and for estimating the activation level by Aβ peptides. Negative controls were wells without enzyme, but with all the other above-mentioned reagents. The kinetic rate of enzyme activity (as ΔRFU/min slope data) was calculated and processed using the GraphPad Prism 7 analysis software. The actual rate values as well as statistical analysis values (P-values) of ChAT activity at different Aβ concentrations or alone were calculated after fitting the curve with the linear regression function in the GraphPad Prism 7. […]

[2] = Thioflavin-T (ThT) fluorescence Aβ fibrillization assay; assay type: physicochemical; conditions: 800 ng/mL Aβ40, 100 ng/mL Aβ42; ThT 1 μM, pH 7.4, 37°C overnight, ex 450/em 485 nm, ChAT, choline and ACoA as in activity assay; method: quadruplicate, legend: mean ± SEM of three readings
Procedure: The ThT fluorescence assay was used to ensure that the Aβ peptides remained soluble during the aforementioned experimental setups. The ThT fluorescence assay was performed in 96-well black plates with a transparent bottom, as described before ([Kumar et al., 2016b]). […] The concentration of ChAT, choline, and ACoA were as used in the aforementioned experiments. To each well, 100 μL/well of a 1 μM ThT solution was added, the plate was then carefully sealed and the changes in fluorescence were monitored from the bottom of the wells, at an emission and excitation wavelengths of 485 nm and 450 nm, respectively, at 15-min intervals at 37°C for an overnight duration, using a microplate spectrophotometer reader (Infinite M1000, Tecan). Each Aβ peptide concentration was run in quadruplicate. Several wells with Aβ alone were also included as control, and wells without ThT were used as negative controls.

[3] = system: cultured cholinergic neurons; conditions: high nanomolar concentration; ref Pedersen et al., 1996; Hoshi et al., 1997; Kar et al., 1998; Nunes-Tavares et al., 2012; cited from earlier work
Description: The functional relationship between Aβ and the cholinergic system, especially ChAT, is quite complex and still need further exploration to gain a better understanding of Aβ native function and role in AD pathology.

Q: What does the source list for “Aβ40: amyloid-β peptide, recombinant, purchased from rPeptide (Cat no. A-1153-1)”?
A: direction of effect on ChAT activity at high concentrations [1]: inhibition of ChAT rather than activation; rate of ChAT activity in the presence of Aβ40 ([1]; 6.4 ng/mL Aβ40, rChAT 0.146 μg/mL, 150 μM choline chloride, 10 μM ACoA, 15 μM CPM, 30 min room temperature, pH 7.4, no gelatin, mean ± SD of ≥2 readings, control (ChAT alone) 26.06 ± 1.07, F = 33.21, p < 0.0001): 36.5 ± 1.48 ΔRFU/min; difference in elevations or intercepts of ChAT rate vs gelatin control ([1]; 1 mg/mL gelatin, 6.4 ng/mL Aβ40, F = 9.2, p < 0.004): significant; difference in slopes of ChAT rate vs gelatin control ([1]; 1 mg/mL gelatin): not statistically significant; effect on increases in ChAT activity at the higher Aβ concentration points [1]: started to decline; concentration range giving the highest level of ChAT activation in the mixture [1]: 1.3 to 6.4 ng/mL; effect on ChAT activity at physiological concentrations ([1]; no gelatin): able to increase the activity of ChAT at physiological concentrations; concentration at which the increase in ChAT activity reaches a plateau ([1]; no gelatin, dilution series 0–800 ng/mL Aβ40, 0–100 ng/mL Aβ42): ~32 ng/mL; overall effect on ChAT across experiments ([1]; some experiments vs others): inhibited ChAT in some experiments, while in others it enhanced its activity; difference in ThT fluorescence intensity vs control wells (no Aβ) [2]: no significant differences in the ThT fluorescence intensity

Q: What does the source list for “Aβ42: amyloid-β peptide, recombinant, purchased from rPeptide (Cat no. A-1166-1)”?
A: reduction in ACh synthesis [3]: 40–50%; direction of effect on ChAT activity at high concentrations [1]: activation of ChAT; rate of ChAT activity in the presence of Aβ42 ([1]; 0.16 ng/mL Aβ42, rChAT 0.146 μg/mL, 150 μM choline chloride, 10 μM ACoA, 15 μM CPM, 30 min room temperature, pH 7.4, no gelatin, mean ± SD of ≥2 readings, control (ChAT alone) 53.8 ± 1.11, F = 98.5, p < 0.0001): 71.6 ± 1.41 ΔRFU/min; difference in slopes of ChAT rate vs gelatin control ([1]; 1 mg/mL gelatin): statistically highly significant; effect on increases in ChAT activity at the higher Aβ concentration points [1]: started to decline; concentration range giving the highest level of ChAT activation in the mixture [1]: 0.12 to 0.64 ng/mL; effect on ChAT activity at physiological concentrations ([1]; no gelatin): able to increase the activity of ChAT at physiological concentrations; difference in ThT fluorescence intensity vs control wells (no Aβ) [2]: no significant differences in the ThT fluorescence intensity

Q: With gelatin [reference compound] as the substance, how does the “effect of gelatin on ChAT activity” value ([1]; gelatin 0 to 4 mg/mL, mean ± SD of four readings) read?
A: The value was “slight increase in the rate of ChAT activity within the 0.5–2 mg/mL gelatin concentration range; also recorded: no significant effect on ChAT activity”.

Q: What about the “change in ChAT activity by gelatin” value ([1]; gelatin 0.5 to 4 mg/mL, Figure 4A, mean ± SD of four readings) of the same substance?
A: Its value is −5% to +9.
